Laboratory results from patent US7727968B2, “Combination therapy for the treatment of acute leukemia and myelodysplastic syndrome” (priority 2002, dated 2010).
Where a name gives a salt, the structure may show the parent alone.

How the values were obtained:
[1] = test system: patients with relapsed, refractory, or de novo AML; experiment: Phase 1/2 study combining gemtuzumab ozogamicin with cytarabine and daunorubicin (Example 1); conditions: in the triple combination
Experimental: The maximum tolerated dose was determined to be cytarabine 100 mg/m^2/day by continuous infusion on days 1 through 7, daunorubicin 45 mg/m^2 by intravenous bolus on days 1 through 3, and gemtuzumab ozogamicin 6 mg/m^2 by 2-hour infusion on day 4.
A detailed safety and efficacy evaluation was performed on the first 19 patients treated with this combination induction regimen and subsequently followed for at least 28 days. There were sixteen men and three women enrolled with a median age of 46 years (range, 20 to 60). One, ten, and three patients were categorized in favorable-, intermediate- and poor-risk cytogenetic groups, respectively. Cytogenetic analysis was not available for five patients.

[2] = test system: adult acute nonlymphocytic leukemia; conditions: used as a single agent; cited from earlier work
[3] = test system: patients with poor prognosis AML; conditions: refractory AML; single dose GO 9 mg/m^2 three days prior to first pulse of chemotherapy; cited from earlier work
[4] = test system: AML patients; experiment: UK safety study combining gemtuzumab ozogamicin with intensive chemotherapy before the MRC AML15 trial (Example 2); type: in vivo, human
Experimental: The feasibility of combining gemtuzumab ozogamicin with intensive chemotherapy for induction and/or consolidation was evaluated in 67 patients in a safety study in the United Kingdom prior to the start of the Medical Research […] AML15 trial. The aim was to combine gemtuzumab ozogamicin with chemotherapy planned in the trial, (DAT; Daunorubicin, AraC, Thioguanine, or DA; Daunorubicin AraC; or FLAG-IDA; Fludarabine, AraC, G-CSF, Idarubicin) as course 1. Course 1 was given using gemtuzumab ozogamicin in an amount of 3 mg/m^2 on day 1 of chemotherapy in 55 patients. Thirty-three patients received gemtuzumab ozogamicin with DAT. Eight patients received gemtuzumab ozogamicin with DA. Fourteen patients received gemtuzumab ozogamicin with FLAG-Ida. Of the 55 patients treated, 41 […] entered complete remission with course 1 broken down as follows: […] DAT=26/32; (2) DA=7/8; and (3) FLAG-Ida=8/8. Prior experience in a separate trial designated MRC AML12 where 720 patients were treated with H-DAT alone in course 1, 64% of those patients achieved complete remission. In the present study, the median time to ANC recovery (1×10^9/l) was 27 days (range 9-54) and platelets >100×10^9/l was 30 (range 21-48) which is within the mean+ISD of the 720 patients treated with H-DAT alone in the MRC AML12 trial. Non-hemopoietic toxicity was confined to the liver. Overall the maximum toxicity was Grade 1=5 patients, Grade 2=22 patients, Grade 3=13 patients and Grade 4=10 patients. Of the Grade 3 and 4 toxicities, 7 were felt to be definitely associated with gemtuzumab ozogamicin therapy. A possible contributory factor was the inclusion of Thioguanine. Of the 39 recipients where Thioguanine was included in the schedules, 22 developed Grade 3 or 4 liver toxicity compared with 1 for 16 recipients of non-Thioguanine schedules. […]
The overall survival of all patients receiving gemtuzumab ozogamicin in a dose of 3 mg/m^2 with course 1 at 6 months is 73% and at 12 months is 68%. For the patient receiving non-Thioguanine induction with 3 mg/m^2 of gemtuzumab ozogamicin, the 6 month survival is 91%.

[5] = test system: AML patients <60 years of age; conditions: cited from earlier work
[6] = test system: patients with AML; conditions: cited from earlier work
[7] = GO 3 mg/m^2 with course 1 chemotherapy
[8] = all patients receiving GO 3 mg/m^2 with course 1

Nc1ccn([C@@H]2O[C@H](CO)[C@@H](O)[C@@H]2O)c(=O)n1 [cytarabine, 4-amino-1-(beta)-D-arabinofuranosyl-2(1H)-pyrimidinone]
maximum tolerated dose ([1]; continuous infusion days 1 through 7): 100 mg/m^2/day

COc1cccc2c1C(=O)c1c(O)c3c(c(O)c1C2=O)C[C@@](O)(C(C)=O)C[C@@H]3O[C@H]1C[C@H](N)[C@H](O)[C@H](C)O1 [daunorubicin hydrochloride, (1 S,3 S)-3-Acetyl-1,2,3,4,6,11-hexahydro-3,5,12-trihydroxy-10-methoxy-6,11-dioxo-1-naphthacenyl 3-amino-2,3,6-trideoxy-(alpha)-L-lyxo-hexopyranoside hydrochloride]
complete remission rates [2]: 40 to 50%

COc1cccc2c1C(=O)c1c(O)c3c(c(O)c1C2=O)C[C@@](O)(C(C)=O)C[C@@H]3O[C@H]1C[C@H](N)[C@H](O)[C@H](C)O1 [daunorubicin, (8S-cis)-8-acetyl-10-[(3-amino-2,3,6-trideoxy-(alpha)-L-lyxo-hexopyranosyl)oxy]-7,8,9,10-tetrahydro-6,8,11-trihydroxy-1-methoxy-5,12-naphthacenedione hydrochloride]
maximum tolerated dose ([1]; intravenous bolus days 1 through 3): 45 mg/m^2

gemtuzumab ozogamicin: recombinant humanized IgG4, kappa anti-CD33 antibody conjugated with N-acetyl-gamma calicheamicin via a bifunctional linker
maximum tolerated dose ([1]; 2-hour infusion on day 4): 6 mg/m^2
patients entering complete remission [3]: two of four
feasibility ([4]; GO 3 mg/m^2 in course 1 and GO 3 mg/m^2 in course 3, twelve patients): appears to be feasible
complete remission with course 1 ([4]; GO 3 mg/m^2 on day 1 of chemotherapy (DAT, DA or FLAG-Ida), 41 of 55 patients treated): 85%
Grade 3 and 4 toxicities felt to be definitely associated with gemtuzumab ozogamicin therapy [4, 7]: 7
maximum liver toxicity Grade 1 [4, 7]: 5 patients
maximum liver toxicity Grade 2 [4, 7]: 22 patients
maximum liver toxicity Grade 3 [4, 7]: 13 patients
maximum liver toxicity Grade 4 [4, 7]: 10 patients
median time to ANC recovery (1×10^9/l) ([4]; GO 3 mg/m^2 with course 1 chemotherapy, range 9-54): 27 days
median time to platelets >100×10^9/l ([4]; GO 3 mg/m^2 with course 1 chemotherapy, range 21-48): 30 days
recipients developing Grade 3 or 4 liver toxicity ([4]; Thioguanine included in the schedules, 39 recipients): 22
overall survival at 6 months [4, 8]: 73%
overall survival at 12 months [4, 8]: 68%
6 month survival ([4]; non-Thioguanine induction with GO 3 mg/m^2): 91%
recipients developing Grade 3 or 4 liver toxicity ([4]; non-Thioguanine schedules, 16 recipients): 1
liver toxicity ([5]; GO 6 mg/m^2 dose with H-DAT or S-DAT): increased liver toxicity
toxicity in patients receiving GO in courses 1 and 2 ([5]; with H-DAT or S-DAT induction, one patient died): delayed hematological recovery and VOD
increased risk of developing significant hepatotoxicity ([6]; patients who did not undergo stem cell transplantation): ≤ 10%
response rate ([6]; patients with relapsed AML): < 40%
